Values of other authors as cited in US20050255458A1, “Drug discovery assays based on the biology of chronic disease” (priority 2002, published 2005).

What was measured:
[1] = system: reverse transmigration of PBMC across HUVEC
anagen hair follicles = conditions: Philpott 1996

B1: soluble TF: soluble tissue factor (protein, UniProt P13726 33-251, looked up)
extracellular domain: SGTTNTVAAYNLTWKSTNFKTILEWEPKPVNQVYTVQISTKSGDWKSKCFYTTDTECDLTDEIVKDVKQTYLARVFSYPAGNVESTGSAGEPLYENSPEFTPYLETNLGQPTIQSFEQVGTKVNVTVEDERTLVRRNNTFLSLRDVFGKDLIYTLYYWKSSSSGKKTAKTNTNEFLIDVDKGENYCFSVQAVIPSRTVNRKSTDSPVECMGQEKGEFRE
modifications: extracellular domain
notes: soluble tissue factor
inhibition of reverse transendothelial migration [1]: 69±2%

B2: IL-1α: interleukin 1α cytokine (protein, UniProt P01583 113-271, looked up)
Interleukin-1 alpha: SAPFSFLSNVKYNFMRIIKYEFILNDALNQSIIRANDQYLTAAALHNLDEAVKFDMGAYKSSKDDAKITVILRISKTQLYVTAQDEDQPVLLKEMPEIPKTITGSETNLLFFWETHGTKNYFTSVAHPNLFIATKQDYWVCLAGGPPSITDFQILENQA
scalp hair growth (anagen hair follicles): inhibition of scalp hair growth
